Laboratory results as given in US20180346588A1.

Target: human mesothelin (MSLN) on the cell surface (human) (UniProt Q13421)
Assay: FACS on MiaPaCa-MSLN #2 cells, upper histogram and table

human mesothelin (MSLN) on the cell surface (human), sequence (Q13421 other isoform, or with tags, fused parts or gaps limits assumed): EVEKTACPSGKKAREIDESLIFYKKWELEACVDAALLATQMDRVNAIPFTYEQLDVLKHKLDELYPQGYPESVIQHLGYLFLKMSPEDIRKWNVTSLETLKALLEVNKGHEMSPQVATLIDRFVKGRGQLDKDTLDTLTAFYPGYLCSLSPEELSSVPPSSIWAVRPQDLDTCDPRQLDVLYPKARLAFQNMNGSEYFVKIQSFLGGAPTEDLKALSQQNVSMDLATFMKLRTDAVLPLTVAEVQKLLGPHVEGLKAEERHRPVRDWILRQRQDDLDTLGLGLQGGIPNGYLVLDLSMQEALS

Mean, FL2-H: 2710
B1: BAY94-9343 (antibody, INN chains, looked up, V domains shown)
VH: QVELVQSGAEVKKPGESLKISCKGSGYSFTSYWIGWVRQAPGKGLEWMGIIDPGDSRTRYSPSFQGQVTISADKSISTAYLQWSSLKASDTAMYYCARGQLYGGTYMDGWGQGTLVTVSS
VL: DIALTQPASVSGSPGQSITISCTGTSSDIGGYNSVSWYQQHPGKAPKLMIYGVNNRPSGVSNRFSGSKSGNTASLTISGLQAEDEADYYCSSYDIESATPVFGGGTKLTVL
modifications: ravtansine (DM4) payload
